Data: PMC2192906
pKd: −log10 of the molar value. Read-outs that look alike come from different tables or passages of the source. Each block holds one substance with its values, some of them ahead of it.

How the values were obtained:
[1] = target: QL9/L^d complex on the surface of T2-L^d cells (UniProt Q60597); experiment: radioligand binding
[2] = target: biotinylated L^d–QL9 complex (immobilised on the chip) (UniProt Q60597); experiment: SPR
[3] = target: 2C single-chain TCR (scTCR), wild-type, thioredoxin fusion (mouse); experiment: SPR
[4] = target: 2C scTCR 102/55 double mutant (αS102A, βT55A) (mouse); experiment: SPR
[5] = target: 2C scTCR 102/55 double mutant (αS102A, βT55A) (mouse); experiment: SPR; remark: listed apart in the source

fold better than wild-type (IC50 ratio) [1]: 2.3 fold
pKd [2]: 6.15
Substance: 2C scTCR 102/55 double mutant (αS102A, βT55A)

ΔΔG against wild-type [1]: -0.32 kcal/mol
Substance: 2C scTCR 102/56 double mutant (αS102A, βE56A)

fold reduced against wild-type (IC50 ratio) [1]: 15 fold
Substance: 2C scTCR αS51P mutant (Vα3.2-like)

ΔΔG against wild-type [1]: -0.31 kcal/mol
Substance: 2C scTCR αS102A mutant

ΔΔG against wild-type [1]: -0.11 kcal/mol
Substance: 2C scTCR βE56A mutant

ΔΔG against wild-type [1]: 1.06 kcal/mol
Substance: 2C scTCR βE56K mutant

ΔΔG against wild-type [1]: -0.23 kcal/mol
Substance: 2C scTCR βT55A mutant

pKd [2]: 5.72
Substance: 2C single-chain TCR (scTCR), wild-type, thioredoxin fusion

Substance: purified soluble L^d–QL9 complex (from UniProt Q60597 41-1023) (peptide-MHC)
pKd [3]: 5.72
pKd [4]: 5.92
pKd [5]: 5.62
koff of wild-type over koff of 102/55 (fold faster) [5]: 3.2 fold
kon of wild-type over kon of 102/55 (fold faster) [5]: 2.4 fold
